# Experimental data as given in PMC11472053, “Structural basis of DNA recognition by BEN domain proteins reveals a role for oligomerization in unmethylated DNA selection by BANP” (Nucleic Acids Research, 2024).
# Where a chain is given by its changes, count along the chain named.
# T1: BANP BEN K314A (human, UniProt Q8N9N5 205-325, K314A)
# T1 sequence: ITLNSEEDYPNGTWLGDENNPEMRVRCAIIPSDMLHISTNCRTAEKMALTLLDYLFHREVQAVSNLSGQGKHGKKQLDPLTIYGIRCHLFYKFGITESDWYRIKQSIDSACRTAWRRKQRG
# T2: BANP BEN S310A (human, UniProt Q8N9N5 205-325, S310A)
# T2 sequence: T1 sequence with S106A, A110K
# T3: BANP CC-BEN (ΔDBD) (human, UniProt Q8N9N5 1-360)
# T3 sequence: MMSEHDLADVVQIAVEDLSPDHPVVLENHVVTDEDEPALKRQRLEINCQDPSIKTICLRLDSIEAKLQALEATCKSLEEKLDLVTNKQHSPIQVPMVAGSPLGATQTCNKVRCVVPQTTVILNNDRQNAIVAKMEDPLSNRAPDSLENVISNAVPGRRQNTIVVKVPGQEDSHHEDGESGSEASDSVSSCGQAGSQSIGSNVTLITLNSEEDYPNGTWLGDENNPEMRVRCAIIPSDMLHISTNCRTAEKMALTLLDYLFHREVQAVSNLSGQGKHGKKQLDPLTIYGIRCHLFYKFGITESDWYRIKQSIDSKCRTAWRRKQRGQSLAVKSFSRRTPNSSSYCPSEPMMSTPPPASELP
# T4: GST-BANP BEN (human, UniProt Q8N9N5 205-325)
# T4 sequence: T1 sequence with A110K
# T5: BANP BEN S313A (human, UniProt Q8N9N5 205-325, S313A)
# T5 sequence: T1 sequence with S109A, A110K
# T6: BANP BEN-DBD (human, UniProt Q8N9N5 205-519)
# T6 sequence: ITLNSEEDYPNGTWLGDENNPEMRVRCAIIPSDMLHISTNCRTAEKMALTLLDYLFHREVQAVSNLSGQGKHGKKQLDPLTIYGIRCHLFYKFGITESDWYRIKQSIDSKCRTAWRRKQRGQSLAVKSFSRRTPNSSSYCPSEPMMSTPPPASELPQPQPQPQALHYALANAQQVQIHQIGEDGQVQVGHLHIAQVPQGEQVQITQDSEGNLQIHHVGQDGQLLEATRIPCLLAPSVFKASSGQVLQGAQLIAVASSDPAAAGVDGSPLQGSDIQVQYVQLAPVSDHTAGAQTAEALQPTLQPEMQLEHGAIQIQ
# T7: BANP BEN R316A (human, UniProt Q8N9N5 205-325, R316A)
# T7 sequence: T1 sequence with A110K, R112A
# T8: BANP DBD (human, UniProt Q8N9N5 361-519)
# T8 sequence: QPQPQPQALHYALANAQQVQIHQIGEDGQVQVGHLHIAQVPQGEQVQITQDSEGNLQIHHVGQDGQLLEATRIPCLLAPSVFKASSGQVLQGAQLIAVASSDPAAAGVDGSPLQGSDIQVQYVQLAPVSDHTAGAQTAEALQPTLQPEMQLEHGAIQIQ
# T9: BANP BEN WT (human, UniProt Q8N9N5 205-325)
# T9 sequence: T1 sequence with A110K
# B1: 12-CGCG (dsDNA)
# DNA 1: ATCTCGCGAGAT
# DNA 2: ATCTCGCGAGAT
# Legend:
# [1] = target: T1, BANP BEN K314A; assay: ITC; ITC: 20 mM Tris pH 7.5, 200 mM NaCl, 2 mM beta-mercaptoethanol, 20 C; EMSA: 20 mM Tris pH 7.0, 200 mM NaCl, 2 mM DTT, 4 C, 1.2% agarose in TAE; conditions: protein: recombinant; tags: His-SUMO or His-MBP, cleaved; chain copies: 2; blunt, self-complementary
# [2] = target: T2, BANP BEN S310A; assay: as above; conditions: protein: recombinant; tags: His-SUMO or His-MBP, cleaved; chain copies: 2; blunt, self-complementary
# [3] = target: T3, BANP CC-BEN (ΔDBD); assay: as above; conditions: protein: recombinant; tags: His-SUMO or His-MBP, cleaved; blunt, self-complementary
# [4] = target: T4, GST-BANP BEN; assay: as above; conditions: protein: recombinant; tags: N-terminal GST fusion; chain copies: 2; blunt, self-complementary
# [5] = target: T5, BANP BEN S313A; assay: as above; conditions: protein: recombinant; tags: His-SUMO or His-MBP, cleaved; chain copies: 2; blunt, self-complementary
# [6] = target: T6, BANP BEN-DBD; assay: as above; conditions: protein: recombinant; tags: His-SUMO or His-MBP, cleaved; blunt, self-complementary
# [7] = target: T7, BANP BEN R316A; assay: as above; conditions: protein: recombinant; tags: His-SUMO or His-MBP, cleaved; chain copies: 2; blunt, self-complementary
# [8] = target: T8, BANP DBD; assay: EMSA; ITC: 20 mM Tris pH 7.5, 200 mM NaCl, 2 mM beta-mercaptoethanol, 20 C; EMSA: 20 mM Tris pH 7.0, 200 mM NaCl, 2 mM DTT, 4 C, 1.2% agarose in TAE; conditions: protein: recombinant; tags: His-SUMO or His-MBP, cleaved; blunt, self-complementary
# [9] = target: T9, BANP BEN WT; assay: ITC; text gives 2.5 uM; ITC: 20 mM Tris pH 7.5, 200 mM NaCl, 2 mM beta-mercaptoethanol, 20 C; EMSA: 20 mM Tris pH 7.0, 200 mM NaCl, 2 mM DTT, 4 C, 1.2% agarose in TAE; conditions: protein: recombinant; tags: His-SUMO or His-MBP, cleaved; chain copies: 2; blunt, self-complementary
binder,measurement,setting,value
B1,Kd,[1],25.2 ± 3.8 µM
same,Kd,[2],12.8 ± 0.9 µM
same,Kd,[3],2.9 ± 0.7 µM
same,Kd,[4],2.3 ± 0.4 µM
same,Kd,[5],7.9 ± 1.1 µM
same,Kd,[6],3.1 ± 0.3 µM
same,Kd,[7],16.8 ± 1.6 µM
same,binding result,[8],no binding
same,Kd,[9],2.6 ± 0.4 µM
